{"source": "paper PMC3454426", "key": {"[1]": {"target": "Moniliophthora perniciosa necrosis- and ethylene-inducing protein 2 (MpNep2) (Moniliophthora perniciosa)", "test": "SEC; preparative Sephacryl S100 16/60 and analytical UFLC on Superdex 200 or 75, 0.7 mL/min; 20 mM phosphate pH 7.4, 80 mM NaCl; also at different ionic strengths and after 1 mM 2-mercaptoethanol"}, "[2]": {"target": "Moniliophthora perniciosa necrosis- and ethylene-inducing protein 2 (MpNep2) (Moniliophthora perniciosa)", "test": "dynamic light scattering; monomer 120 uM and dimer 45 uM in 20 mM phosphate, 80 mM NaCl, pH 7.4, 25°C"}}}
{"substance": "Moniliophthora perniciosa necrosis- and ethylene-inducing protein 2 (MpNep2) (natural protein)", "values": [{"measurement": "stoichiometry N", "setting": "[1]", "result": 2}, {"measurement": "stoichiometry N", "setting": "[2]", "result": 2}]}
